Source: patent US20160136234A1

Legend:
Experiment in all cases: cell-based or functional assay
GSK3α (h) (human) = GSK3α (h) (human) (UniProt P49840)
TAK1 (h) (human) = target: T1, TAK1 (h) (human) (UniProt O43318)
T1 sequence (looked up): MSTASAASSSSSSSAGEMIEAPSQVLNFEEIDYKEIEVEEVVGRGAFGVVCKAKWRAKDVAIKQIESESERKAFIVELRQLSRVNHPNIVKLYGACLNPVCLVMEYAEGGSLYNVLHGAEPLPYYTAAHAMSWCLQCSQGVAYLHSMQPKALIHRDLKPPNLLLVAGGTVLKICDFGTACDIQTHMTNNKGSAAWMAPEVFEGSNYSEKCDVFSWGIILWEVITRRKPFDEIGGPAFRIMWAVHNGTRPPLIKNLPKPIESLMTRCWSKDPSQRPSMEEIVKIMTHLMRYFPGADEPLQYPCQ

CK1γ2 (h) (human) = CK1γ2 (h) (human) (UniProt P78368)
Met(D1246N) (h) (human) = Met(D1246N) (h) (human) (UniProt P08581)
EphA7 (h) (human) = EphA7 (h) (human) (UniProt Q15375)
MELK (h) (human) = MELK (h) (human) (UniProt Q14680)
Flt3 (h) (human) = target: T2, Flt3 (h) (human) (UniProt P36888)
T2 sequence (looked up): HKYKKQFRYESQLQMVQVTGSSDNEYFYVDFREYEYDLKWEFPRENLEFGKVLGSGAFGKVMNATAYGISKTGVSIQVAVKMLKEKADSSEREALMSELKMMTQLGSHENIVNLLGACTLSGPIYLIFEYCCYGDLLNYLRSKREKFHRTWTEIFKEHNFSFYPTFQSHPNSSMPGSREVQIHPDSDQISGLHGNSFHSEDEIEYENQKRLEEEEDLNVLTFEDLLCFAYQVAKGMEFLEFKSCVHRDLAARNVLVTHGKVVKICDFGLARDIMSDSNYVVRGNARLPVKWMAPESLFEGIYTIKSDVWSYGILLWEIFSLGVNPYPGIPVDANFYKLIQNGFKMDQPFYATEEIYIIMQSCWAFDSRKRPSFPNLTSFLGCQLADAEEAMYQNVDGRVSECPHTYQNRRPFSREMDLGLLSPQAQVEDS

[1] = target: IR (h), activated (human) (UniProt P06213)
Chain of IR (h), activated (human) (P06213 1005-1310 limits assumed): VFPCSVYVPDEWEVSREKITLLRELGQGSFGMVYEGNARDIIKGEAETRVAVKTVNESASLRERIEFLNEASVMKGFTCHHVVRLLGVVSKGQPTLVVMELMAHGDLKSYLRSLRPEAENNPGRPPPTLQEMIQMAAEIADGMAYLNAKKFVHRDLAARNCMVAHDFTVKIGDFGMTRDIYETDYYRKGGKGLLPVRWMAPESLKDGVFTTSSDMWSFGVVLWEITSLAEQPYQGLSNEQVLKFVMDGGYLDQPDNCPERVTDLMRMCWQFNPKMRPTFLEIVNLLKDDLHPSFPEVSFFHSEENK

PKCδ (h) (human) = PKCδ (h) (human) (UniProt Q05655)
[2] = target: BDNF/NT-3 growth factors receptor (human) (UniProt Q16620)
MSK2 (h) (human) = MSK2 (h) (human) (UniProt O75676)
TAO2 (h) (human) = target: T3, TAO2 (h) (human) (UniProt Q9UL54)
T3 sequence (looked up): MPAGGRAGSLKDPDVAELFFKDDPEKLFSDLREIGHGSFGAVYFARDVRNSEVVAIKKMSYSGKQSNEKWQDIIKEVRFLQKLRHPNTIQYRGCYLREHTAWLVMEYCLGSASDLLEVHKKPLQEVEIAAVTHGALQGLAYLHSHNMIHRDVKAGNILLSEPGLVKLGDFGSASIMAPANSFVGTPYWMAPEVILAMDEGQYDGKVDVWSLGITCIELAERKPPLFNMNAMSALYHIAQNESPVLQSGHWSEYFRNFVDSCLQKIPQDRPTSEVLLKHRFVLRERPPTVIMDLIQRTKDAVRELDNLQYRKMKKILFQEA

CHK2 (h) (human) = CHK2 (h) (human) (UniProt O96017)
Chain of CHK2 (h) (human) (O96017 5-543 limits assumed): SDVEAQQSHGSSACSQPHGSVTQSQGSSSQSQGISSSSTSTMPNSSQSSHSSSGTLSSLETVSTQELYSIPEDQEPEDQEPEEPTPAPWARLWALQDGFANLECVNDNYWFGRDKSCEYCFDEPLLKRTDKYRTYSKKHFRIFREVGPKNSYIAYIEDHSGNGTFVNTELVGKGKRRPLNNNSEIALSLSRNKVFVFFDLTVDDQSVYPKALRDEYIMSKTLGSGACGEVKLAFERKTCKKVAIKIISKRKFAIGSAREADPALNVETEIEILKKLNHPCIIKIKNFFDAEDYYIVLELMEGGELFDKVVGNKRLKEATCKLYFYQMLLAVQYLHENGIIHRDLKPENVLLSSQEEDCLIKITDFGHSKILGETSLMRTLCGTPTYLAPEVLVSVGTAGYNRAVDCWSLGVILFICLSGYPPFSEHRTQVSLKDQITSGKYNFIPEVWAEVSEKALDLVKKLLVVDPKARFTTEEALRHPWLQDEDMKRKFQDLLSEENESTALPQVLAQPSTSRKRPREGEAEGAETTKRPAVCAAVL

PKG1β (h) (human) = target: T4, PKG1β (h) (human) (UniProt Q13976)
T4 sequence (looked up): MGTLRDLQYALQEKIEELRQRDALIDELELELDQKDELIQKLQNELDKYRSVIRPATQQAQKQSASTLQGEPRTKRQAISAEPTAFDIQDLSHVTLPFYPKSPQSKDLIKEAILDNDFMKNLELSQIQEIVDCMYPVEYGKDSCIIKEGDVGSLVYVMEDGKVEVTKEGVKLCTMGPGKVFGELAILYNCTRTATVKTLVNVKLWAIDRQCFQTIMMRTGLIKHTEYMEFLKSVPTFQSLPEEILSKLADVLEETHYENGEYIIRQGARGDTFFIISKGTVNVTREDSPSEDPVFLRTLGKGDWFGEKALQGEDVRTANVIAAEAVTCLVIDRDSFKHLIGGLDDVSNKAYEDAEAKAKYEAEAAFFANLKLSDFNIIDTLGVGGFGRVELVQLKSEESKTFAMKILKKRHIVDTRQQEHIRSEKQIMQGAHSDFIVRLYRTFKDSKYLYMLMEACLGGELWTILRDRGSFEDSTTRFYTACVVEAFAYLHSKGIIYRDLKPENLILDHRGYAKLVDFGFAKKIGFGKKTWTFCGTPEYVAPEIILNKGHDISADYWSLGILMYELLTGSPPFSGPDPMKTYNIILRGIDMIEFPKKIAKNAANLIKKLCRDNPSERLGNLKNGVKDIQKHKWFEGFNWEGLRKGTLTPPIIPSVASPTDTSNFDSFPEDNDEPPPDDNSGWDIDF

Ret (V804L) (h) (human) = target: T5, Ret (V804L) (h) (human) (UniProt P07949)
T5 sequence (looked up): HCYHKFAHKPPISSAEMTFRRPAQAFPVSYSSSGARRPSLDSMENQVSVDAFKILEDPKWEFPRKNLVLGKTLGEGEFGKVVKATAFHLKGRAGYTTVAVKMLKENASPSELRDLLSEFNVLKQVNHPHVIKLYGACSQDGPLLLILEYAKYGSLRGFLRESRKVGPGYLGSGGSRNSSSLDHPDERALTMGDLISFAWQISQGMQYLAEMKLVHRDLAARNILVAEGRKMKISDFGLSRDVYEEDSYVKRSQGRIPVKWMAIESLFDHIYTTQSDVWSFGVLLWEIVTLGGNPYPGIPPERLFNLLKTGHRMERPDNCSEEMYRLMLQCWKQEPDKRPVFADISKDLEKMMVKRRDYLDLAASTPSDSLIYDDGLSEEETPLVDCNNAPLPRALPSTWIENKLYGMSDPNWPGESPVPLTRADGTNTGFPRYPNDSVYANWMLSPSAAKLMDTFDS

% activity at 100 µM (GSK3α (h) (human)): 157%
% activity at 100 µM (TAK1 (h) (human)): 122%
% activity at 100 µM (CK1γ2 (h) (human)): 123%
% activity at 100 µM (Met(D1246N) (h) (human)): 82%
% activity at 100 µM (EphA7 (h) (human)): 159%
% activity at 100 µM (MELK (h) (human)): 16%
% activity at 100 µM (Flt3 (h) (human)): 84%
% activity at 100 µM [1]: 79%
% activity at 100 µM (PKCδ (h) (human)): 101%
% activity at 100 µM [2]: 5%
% activity at 100 µM (MSK2 (h) (human)): 56%
% activity at 100 µM (TAO2 (h) (human)): 70%
% activity at 100 µM (CHK2 (h) (human)): 66%
% activity at 100 µM (PKG1β (h) (human)): 50%
% activity at 100 µM (Ret (V804L) (h) (human)): 79%
Substance: MMI-0300 (peptide)
